Experimental data from paper PMC11487272 (Nature Communications, 2024).
Numbering of substitutions follows the chain as printed. Names may count otherwise.

How the values were obtained:
[1] = target: the molecule itself; test: cryo-EM structure
[2] = target: full-length Casp-8 F122G/L123G/C360A/D374A/D384A (UniProt Q14790 1-479, F122G | L123G | C360A | D374A | D384A); test: co-purification
[3] = target: T1, His-tagged full-length FADD F25Y (UniProt Q13158 1-208, F25Y); test: pull-down
T1 sequence: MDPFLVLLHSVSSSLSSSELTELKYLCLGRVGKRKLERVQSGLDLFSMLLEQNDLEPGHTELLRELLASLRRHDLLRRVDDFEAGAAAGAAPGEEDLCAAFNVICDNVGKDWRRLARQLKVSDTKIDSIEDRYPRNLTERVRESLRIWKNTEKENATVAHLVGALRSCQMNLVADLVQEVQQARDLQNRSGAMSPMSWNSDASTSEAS

[4] = target: wild-type cFLIP^tDED (residues 1-181) (UniProt O15519 1-181); test: crystal structure

B1: His-tagged full-length FADD F25G (natural protein)
chain: T1 sequence with Y25G
For B1, the “stoichiometry N” value [1] was 3 molecules in the complex and the binding result [2] was “binds”.

B2: binary CF^H7G-C8^FGLG complex, His-tag removed, SEC-purified (complex)
chain 1: […]
chain 2: MDFSRNLYDIGEQLDSEDLASLKFLSLDYIPQRKQEPIKDALMLFQRLQEKRMLEESNLSFLKELLFRINRLDLLITYLNTRKEEMERELQTPGRAQISAYRVMLYQISEEVSRSELRSFKGGLQEEISKCKLDDDMNLLDIFIEMEKRVILGEGKLDILKRVCAQINKSLLKIINDYEEFSKER
B2: binds [3].

B3: Casp-8^tDED_FGLG (procaspase-8 tandem DED, residues 1-185, F122G/L123G) (domain or fragment)
chain: B2 chain 2
B3: binds [4].
